Experimental findings from article PMC8791944, “GLUT3 inhibitor discovery through in silico ligand screening and in vivo validation in eukaryotic expression systems” (Scientific Reports, 2022) are described below.

Substrate in data set [1]: OC[C@H]1OC(O)[C@H](O)[C@@H](O)[C@@H]1O
Nature of the data set: cells, lysate or membranes. It is filed as cell-based, human. The following applies: other: wild-type GLUT3 in hxt^0 cells.

Substrate in data set [2]: OC[C@H]1OC(O)[C@H](O)[C@@H](O)[C@@H]1O
Nature of the data set: cells, lysate or membranes. The following applies: other: GLUT3S66Y in hxt^0 cells.

Substitutions are numbered along the chain they refer to. Names may count otherwise.

B1: GLUT3 (Homo sapiens) (protein)
chain: MGTQKVTPALIFAITVATIGSFQFGYNTGVINAPEKIIKEFINKTLTDKGNAPPSEVLLTSLWSLSVAIFSVGGMIGSFSVGLFVNRFGRRNSMLIVNLLAVTGGCFMGLCKVAKSVEMLILGRLVIGLFCGLCTGFVPMYIGEISPTALRGAFGTLNQLGIVVGILVAQIFGLEFILGSEELWPLLLGFTILPAILQSAALPFCPESPRFLLINRKEEENAKQILQRLWGTQDVSQDIQEMKDESARMSQEKQVTVLELFRVSSYRQPIIISIVLQLSQQLSGINAVFYYSTGIFKDAGVQEPIYATIGAGVVNTIFTVVSLFLVERAGRRTLHMIGLGGMAFCSTLMTVSLLLKDNYNGMSFVCIGAILVFVAFFEIGPGPIPWFIVAELFSQGPRPAAMAVAGCSNWTSNFLVGLLFPSAAHYLGAYVFIIFTGFLITFLAFTFFKVPETRGRTFEDITRAFEGQAHGADRSGKDGVMEMNSIEPAKETTTNV
notes: expressed in transfected cells; host or cells: Saccharomyces cerevisiae hxt0 strain EBY.S7 (fgy1)
For B1, in data set [1], the Michaelis-Menten constant (Km) is listed as 3.11 ± 0.42 mM.

B2: GLUT3S66Y (Homo sapiens; S66Y) (protein)
chain: B1 chain with S66Y
As to B2, in data set [2], the Michaelis constant (Km) worked out at 1.42 ± 0.17 mM.

By Km is commonly meant the concentration of substrate that gives half-maximal velocity.
